In patent US20240092907A1 (Five Prime, published 2024):

T1: recombinant hVISTA ECD multimer (monobiotinylated hVISTA ECD on PE-streptavidin dextramers) (human, UniProt Q9H7M9 33-194, limits assumed, monobiotinylated)
T1 construct: Loaded at a 28:1 molar ratio onto PE-conjugated streptavidin dextramers; also called VISTA multimer; hVISTA-loaded dextramers
T1 sequence (looked up): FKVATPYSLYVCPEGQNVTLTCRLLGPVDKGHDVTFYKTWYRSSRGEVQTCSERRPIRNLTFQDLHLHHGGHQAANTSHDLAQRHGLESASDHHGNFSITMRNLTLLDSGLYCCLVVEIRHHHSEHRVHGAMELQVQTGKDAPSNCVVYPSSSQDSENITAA


What was measured:
[1] = molecular target: BSA (Calbiochem catalog #126593) (UniProt P02769 25-607); test: SPR 25C, Ab on Protein A, pH 6.0 and 7.4
Experimental: (§1) Protein A (ThermoFisher Scientific catalog #21181) was diluted to 20 ug/ml in 10 mM sodium acetate pH 4.5 and immobilized onto flow cells of a CM3 biosensor following the manufacturer's amine coupling protocol (GE Healthcare), targeting 800 RU immobilization density of Protein A per flow cell. SPR experiments were conducted at 25° C. using PBST (137 mM sodium chloride, 2.7 mM potassium chloride, 10 mM phosphate buffer, 0.05% Tween 20) running buffer at pH 7.4 and 6.0. Antibodies (formatted as IgG1.3 antibodies) were diluted to 50 nM in PBST pH 7.4, and were captured across active biosensor flow cells at 5 ul/min for 60 seconds. […] Two 15 second injections of 10 mM glycine pH 1.5 were used to regenerate the Protein A capture surface between assay cycles. Reference flow cell and 0 nM blank-subtracted sensorgrams were inspected using Biacore® T200 Evaluation Software v.2.0.

[2] = molecular target: avidin (ThermoFisher Scientific catalog #21128) (UniProt P02701 25-152); test: SPR 25C, Ab on Protein A, pH 6.0 and 7.4
Experimental: as §1

[3] = molecular target: T1, recombinant hVISTA ECD multimer …; test: flow cytometry, blocking of VISTA multimer binding to activated human CD4+ T cells, pH 6.0
Experimental: As a control, activated CD4+ T cells were stained with PE-conjugated streptavidin dextramers that were not loaded with hVISTA. The stained cells were washed with HBSS+ MES and acquired on a flow cytometer. Data were analyzed using FlowJo™ software (BD Biosciences). […] Left, from darker gray to lighter, the filled histograms depict binding at pH 7.0, 6.5, 6.4, 6.3, 6.1, and 6.0. Some histograms are labeled with their corresponding pH. Non-VISTA control multimer binding at pH 6.0 is shown as the unfilled histogram. Right, graphed PE mean fluorescence intensities (MFI) of CD4+ T cells stained with hVISTA-loaded dextramers (blue circles) or with non-loaded dextramers (triangles) at various pH.
This blocking assay was performed as described in Example 4.

Chain of BSA (Calbiochem catalog #126593) (P02769 25-607 limits assumed): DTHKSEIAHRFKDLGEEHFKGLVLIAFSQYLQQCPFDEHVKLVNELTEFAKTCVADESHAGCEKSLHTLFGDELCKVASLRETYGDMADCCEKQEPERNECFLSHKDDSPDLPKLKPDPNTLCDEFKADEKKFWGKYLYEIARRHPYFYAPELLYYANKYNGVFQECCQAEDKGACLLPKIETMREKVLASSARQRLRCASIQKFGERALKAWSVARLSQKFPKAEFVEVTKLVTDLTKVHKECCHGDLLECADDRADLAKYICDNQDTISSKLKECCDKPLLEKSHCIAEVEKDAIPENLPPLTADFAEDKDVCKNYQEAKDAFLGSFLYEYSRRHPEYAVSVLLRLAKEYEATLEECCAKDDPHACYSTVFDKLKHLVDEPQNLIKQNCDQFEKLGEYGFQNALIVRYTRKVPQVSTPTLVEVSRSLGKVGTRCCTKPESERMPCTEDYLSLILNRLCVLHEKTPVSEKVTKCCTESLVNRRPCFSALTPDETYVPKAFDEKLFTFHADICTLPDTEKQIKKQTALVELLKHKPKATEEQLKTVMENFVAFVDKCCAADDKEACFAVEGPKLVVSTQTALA
Chain of avidin (ThermoFisher Scientific catalog #21128) (P02701 25-152 limits assumed): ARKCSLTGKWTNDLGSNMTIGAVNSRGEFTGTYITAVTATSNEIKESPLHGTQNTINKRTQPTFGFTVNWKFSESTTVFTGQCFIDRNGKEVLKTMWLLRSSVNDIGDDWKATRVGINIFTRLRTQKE

Binder	binding result [1]	binding result [2]	IC50 (read off the curve) [3]
P1-061029.IgG1.3 (antibody, IgG1.3; also called parent; hIgG1.3f) heavy: EVQLVESGGGLVQPGKSLRLSCAASGFTLDDYAMHWVRQAPGKGLEWVSGINWNSANIGYADSVKGRFTISRDNAKNSLYLQMNSLRTEDTALYYCAKVPGYSGGWIDAFDVWGQGTMVTVSSASTKGPSVFPLAPSSKSTSGGTAALGCLVKDYFPEPVTVSWNSGALTSGVHTFPAVLQSSGLYSLSSVVTVPSSSLGTQTYICNVNHKPSNTKVDKRVEPKSCDKTHTCPPCPAPEAEGAPSVFLFPPKPKDTLMISRTPEVTCVVVDVSHEDPEVKFNWYVDGVEVHNAKTKPREEQYNSTYRVVSVLTVLHQDWLNGKEYKCKVSNKALPAPIEKTISKAKGQPREPQVYTLPPSREEMTKNQVSLTCLVKGFYPSDIAVEWESNGQPENNYKTTPPVLDSDGSFFLYSKLTVDKSRWQQGNVFSCSVMHEALHNHYTQKSLSLSPG light: not shown	no binding (tested: 100-10 nM; binding defined as >10 RU)	no binding (tested: 100-10 nM; binding defined as >10 RU)	~0.04 µg/mL
P1-068761.IgG1.3 (antibody, IgG1.3; also called hIgG1.3f) heavy: EVQLVESGGGLVQPGKSLRLSCAASGFTLEDEAMHWVRQAPGKGLEWVSGINWNSEEIGYADSVKGRFTISRDNAKNSLYLQMNSLRTEDTALYYCAKVPGYSHGWIDAEDVWGQGTMVTVSSASTKGPSVFPLAPSSKSTSGGTAALGCLVKDYFPEPVTVSWNSGALTSGVHTFPAVLQSSGLYSLSSVVTVPSSSLGTQTYICNVNHKPSNTKVDKRVEPKSCDKTHTCPPCPAPEAEGAPSVFLFPPKPKDTLMISRTPEVTCVVVDVSHEDPEVKFNWYVDGVEVHNAKTKPREEQYNSTYRVVSVLTVLHQDWLNGKEYKCKVSNKALPAPIEKTISKAKGQPREPQVYTLPPSREEMTKNQVSLTCLVKGFYPSDIAVEWESNGQPENNYKTTPPVLDSDGSFFLYSKLTVDKSRWQQGNVFSCSVMHEALHNHYTQKSLSLSPG light: not shown	no binding (tested: 100-10 nM; binding defined as >10 RU)	no binding (tested: 100-10 nM; binding defined as >10 RU)	–
P1-068767.IgG1.3 (antibody, V domains shown, IgG1.3; also called hIgG1.3f; printed once as P1-068768) VH: EVQLVESGGGLVQPGKSLRLSCAASGFTLEDYAMHWVRQAPGKGLEWVSGIDWNSENIGYADSVKGRFTISRDNAKNSLYLQMNSLRTEDTALYYCAKVPGYSGGWIDAEDDWGQGTMVTVSS VL: not shown	no binding (tested: 100-10 nM; binding defined as >10 RU)	no binding (tested: 100-10 nM; binding defined as >10 RU)	–
